Assay results as given in US7037662 (dated 2006).

T1: LERK 7-FLAG (monovalent LERK7/AL-1 with N-terminal FLAG peptide) (human, UniProt P52803 21-203, limits assumed)
T1 construct: domain: mature protein stopped before the hydrophobic tail; also called soluble LERK7
T1 sequence (looked up): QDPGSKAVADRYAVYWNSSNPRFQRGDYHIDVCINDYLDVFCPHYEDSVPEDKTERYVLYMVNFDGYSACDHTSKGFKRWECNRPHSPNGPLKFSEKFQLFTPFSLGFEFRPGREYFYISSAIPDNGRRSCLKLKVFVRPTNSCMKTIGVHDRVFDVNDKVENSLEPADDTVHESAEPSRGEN

B1: HEK I-VII (N-terminally FLAG-tagged HEK exodomain, exons I-VII) (receptor, human, UniProt P29320 21-541, looked up, not shown: small tags and cut ends)
chain: ELIPQPSNEVNLLDSKTIQGELGWISYPSHGWEEISGVDEHYTPIRTYQVCNVMDHSQNNWLRTNWVPRNSAQKIYVELKFTLRDCNSIPLVLGTCKETFNLYYMESDDDHGVKFREHQFTKIDTIAADESFTQMDLGDRILKLNTEIREVGPVNKKGFYLAFQDVGACVALVSVRVYFKKCPFTVKNLAMFPDTVPMDSQSLVEVRGSCVNNSKEEDPPRMYCSTEGEWLVPIGKCSCNAGYEERGFMCQACRPGFYKALDGNMKCAKCPPHSSTQEDGSMNCRCENNYFRADKDPPSMACTRPPSSPRNVISNINETSVILDWSWPLDTGGRKDVTFNIICKKCGWNIKQCEPCSPNVRFLPRQFGLTNTTVTVTDLLAHTNYTFEIDAVNGVSELSSPPRQFAAVSITTNQAAPSPVLTIKKDRTSRNSISLSWQEPEHPNGIILDYEVKYYEKQEQETSYTILRARGTNVTISSLKPDTIYVFQIRARTAAGYGTNSRKFEFETSPDSFSISGESSQ
notes: extracellular domain; CHO cell product; in the zebrafish experiments expressed from injected mRNA; also called HEK-FLAG
B2: HEK I-III (FLAG-tagged HEK subdomain construct, exons I-III) (receptor, not shown: small tags and cut ends)
chain: ELIPQPSNEVNLLDSKTIQGELGWISYPSHGWEEISGVDEHYTPIRTYQVCNVMDHSQNNWLRTNWVPRNSAQKIYVELKFTLRDCNSIPLVLGTCKETFNLYYMESDDDHGVKFREHQFTKIDTIAADESFTQMDLGDRILKLNTEIREVGPVNKKGFYLAFQDVGACVALVSVRVYFKKCPFTVKNLAMFPDTVPMDSQSLVEVRGSCVNNSKEEDPPRMYCSTEGEWLVPIGKCSCNAGYEERGFMCQ
notes: Native signal peptide (residues 1-20) replaced by IL3 signal and FLAG
B3: soluble HEK (sHEK), complete extracellular domain (exodomain) of HEK encoded by exons I-VII (receptor, human, UniProt P29320 21-541, looked up)
chain: B1 chain
notes: extracellular domain; Untagged soluble exodomain from CHO cells; also called HEK exodomain
B4: LERK 4-Fc fusion protein (Fc fusion, UniProt P52798 26-170, looked up)
chain: LRHVVYWNSSNPRLLRGDAVVELGLNDYLDIVCPHYEGPGPPEGPETFALYMVDWPGYESCQAEGPRAYKRWVCSLPFGHVQFSEKIQRFTPFSLGFEFLPGETYYYISVPTPESSGQCLRLQVSVCCKERKSESAHPVGSPGES
notes: not shown: human Fc domain
B5: LERK 5-Fc fusion protein (Fc fusion, UniProt P52799 28-229, looked up)
chain: IVLEPIYWNSSNSKFLPGQGLVLYPQIGDKLDIICPKVDSKTVGQYEYYKVYMVDKDQADRCTIKKENTPLLNCAKPDQDIKFTIKFQEFSPNLWGLEFQKNKDYYIISTSNGSLEGLDNQEGGVCQTRAMKILMKVGQDASSAGSTRNKDPTRRPELEAGTNGRSSTTSPFVKPNPGSSTDGNSAGHSGNNILGSEVALFA
notes: not shown: human Fc domain
B6: LERK7-Fc fusion protein (Fc fusion, UniProt P52803 21-203, looked up)
chain: T1 sequence (looked up)
notes: not shown: Fc and hinge regions of human IgG1
B7: LERK 3-FLAG (monovalent FLAG-tagged LERK 3) (ligand, UniProt P52797 23-214, looked up, not shown: small tags and cut ends)
chain: QGPGGALGNRHAVYWNSSNQHLRREGYTVQVNVNDYLDIYCPHYNSSGVGPGAGPGPGGGAEQYVLYMVSRNGYRTCNASQGFKRWECNRPHAPHSPIKFSEKFQRYSAFSLGYEFHAGHEYYYISTPTHNLHWKCLRMKVFVCCASTSHSGEKPVPTLPQFTMGPNVKINVLEDFEGENPQVPKLEKSISG
notes: CHO cell-derived
B8: LERK 3-Fc fusion protein (Fc fusion, UniProt P52797 23-214, looked up)
chain: B7 chain
notes: not shown: human Fc domain

Legend:
[1] = molecular target: T1, LERK 7-FLAG (monovalent LERK7/AL-1 with …); assay: BIAcore in-solution competition; 40 nM LERK 7 with increasing competitor injected onto an sHEK-derivatised sensor chip; residual response as % of the response without competitor
Method: (§1) The binding of various HEK constructs and derived peptides was analysed on the BIAcore optical biosensor (Pharmacia Biosensor, Sweden) using purified soluble HEK (corresponding to the entire extracellular domain) or LERK 7-FLAG derivatised CM 5 sensor chips and the interaction kinetics determined. The immobilization of HEK onto the sensor chip surface was performed essentially as described by Lackmann et al, 1996. LERK7-FLAG (47 μg/ml in 20 mM sodium acetate, pH 4.5) was coupled at 5 μl/min onto N-hydroxysuccinimide (NHS, 0.05 M)/N-hydroxysuccinimide-N-ethyl-N'-([…]) carbodiimide(EDC, 0.2 M) activated sensor chips (45 μl, 2 μl/min) to yield an increase in the response level of 2500–3000 response units (RU).
Figure 2F: FIG. 2F: Samples containing 40 nM LERK 7 and 1 nM—10 μM synthetic peptide encoded by exons I and II of the HEK gene (Δ), 10 nM—1 μM HEK I–VII (o), 10 nM—1 μM HEK IV–VII (x) or 1 nM—1 μM HEK I-III (□) were injected onto an sHEK-derivatised sensor chip. The residual responses are illustrated as percentage of the total response in the absence of competitor.

[2] = molecular target: T2, recombinant Human Fc fragment (control) (human, UniProt P01857-1 99-330 = IgG part, limits assumed); assay: BIAcore; human Fc domain at 10 µg/ml (50 µl) on an sHEK-derivatised sensor chip; response 20 s after the end of the injection
T2 construct: domain: Fc fragment; also called human Fc domain; control recombinant Fc construct
Method: (§2) Figure 2C: FIG. 2C: Expression of soluble HEK (sHEK) polypeptides encoded by the constructs shown in B. sHEK in lane 1 corresponds to the complete extracellular domain (exodomain) of HEK encoded by exons I–VII. […] Samples (50 μl) of purified fusion proteins comprising the human Fc domain and either LERK 1, 2, 3, 4, 5 and 7 at 10 μg/ml in BIAcore running buffer were applied onto an sHEK-derivatised sensor chip. The responses were recorded 20 s after completion of the injection phase and are shown as relative BIAcore response units, (RU) compared to the response of an equal amount of human Fc domain used as a control in this experiment.
Receptor-ligand interactions within the Eph family RTKs has mainly been studied by modified indirect Scatchard analysis of human IgG-Fc fusion proteins of ligands or receptors binding to receptor or ligand transfected cells, respectively (Beckmann et al., 1994, supra; Davis et al., 1994, supra; Ceretti et al., 1995, supra: Bennett et at., 1995). To evaluate if BIAcore analysis also detected the interaction of various LERKs with HEK, we compared the binding of bivalent, Fc-fusion proteins of LERK (LERKS 1 to 5) and LERK 7 (FIG. 2C) to sensor chip-immobilised HEK exodomain. Each ligand sample was injected at concentrations between 0.1–10 µg/ml (approximately 0.8 to 80 nM) across the sensor chip. […]

[3] = molecular target: B3; assay: BIAcore, apparent KD from equilibrium responses, LERK-Fc over immobilised HEK
Method: as §2
Receptor-ligand interactions within the Eph family RTKs has mainly been studied by modified indirect Scatchard analysis of human IgG-Fc fusion proteins of ligands or receptors binding to receptor or ligand transfected cells, respectively (Beckmann et al., 1994, supra; Davis et al., 1994, supra; Ceretti et al., 1995, supra: Bennett et at., 1995). To evaluate if BIAcore analysis also detected the interaction of various LERKs with HEK, we compared the binding of bivalent, Fc-fusion proteins of LERK (LERKS 1 to 5) and LERK 7 (FIG. 2C) to sensor chip-immobilised HEK exodomain. Each ligand sample was injected at concentrations between 0.1–10 µg/ml (approximately 0.8 to 80 nM) across the sensor chip. A sample containing 10 µg/ml of the recombinant Human Fc fragment was used as a control.

[4] = molecular target: B3; assay: BIAcore, LERK 3-FLAG over immobilised sHEK, single component model
Method: as §1
(§3) Figures 5A, 5B: FIG. 5: Binding curves for the interaction of monovalent LERK-FLAG fusion proteins with immobilised sHEK. Homogeneous preparations of CHO cell-derived LERK 3-FLAG (panel A) or LERK 7-FLAG (panel B) at increasing concentrations (8.22, 16.44, 32.88, 65.75, 131.5, 263, 526 nM) of LERK3-FLAG, and (1.25, 2.5, 5, 10, 20, 40, 80 nM) LERK7-FLAG were injected across an sHEK-derivatised sensor surface. BIAcore data for the association and dissociation phases were used to estimate corresponding kinetic rate constants on the basis of a one-to-one interaction model. (panel C). […]

[5] = molecular target: B3; assay: BIAcore, LERK-FLAG over HEK sensor chip; reference LERK 7-FLAG
[6] = molecular target: B3; assay: BIAcore, apparent KD from kinetic rate constants, immobilised sHEK
Method: as §1, §3

With B1 the “IC50 (read off the curve)” value [1] was about 90 nM.

B2 was tested, and the “IC50 (read off the curve)” value [1] was about 70 nM.

B3: no binding (tested: 10 µg/ml) [2].

B4 showed a Kd [3] of 6 nM.

B5 showed a Kd [3] of 24 nM.

Work on B6 yielded a Kd [3] of 3 nM.

B7 was tested, and the koff [4] was 0.26 s⁻¹, the kon [4] was 370000 M⁻¹ s⁻¹ and the “fold higher concentration needed for a response comparable to LERK7” value [5] was about 30 fold. For the same binder, the Kd [6] was 590 nM.

With B8 the Kd [3] was 5 nM.
